Assay results: the nanobody polyreactivity screen of Harvey et al. (2022)

Test: yeast display, Sf9 membrane polyspecificity reagent, FACS + sequencing; frameworks hold sequencing errors
How it was run: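 After 36–48 hours of galactose induction, yeast (Saccharomyces cerevisiae BJ5465) displaying a synthetic nanobody library were stained at 4 °C for 1 hour with 10% biotinylated, detergent-solubilized Sf9 membrane reagent. Streptavidin microbeads enriched the stained cells before FACS sorting into low and high (top ~1%) gates on anti-HA and streptavidin fluorescence. Each clone's polyreactivity label reflects its gate of origin.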
In the case of “QVQLVESGGGLVQSGASLRLSCAASGSIFDSYTMGWYRQAPGKEREWVAAISWSGGRTYYADSVKGRFTISRDNAKNTVYLQMNTLKPEDTAVYYCAARNVWKYLFGYDYWGQGTQVTVSS”, the “polyreactivity (PSR sort gate)” value is reported as “high polyreactivity”.
With “QVQLVESGGGLVQAGGSLRLSCAASGSTFYKYAMGWYRQAPGKERELVAVITDGGSTTYADSVKGRFTISRDNAKNTVYLQMNSLKPEDTAVYYCAADYYLRKTRFESWGQGTQVTVSS” the “polyreactivity (PSR sort gate)” value was “low polyreactivity”.
In the case of “QVQLLESGGGLVQPGGSLRLSCAASGSIFDGYAMVWYRQAPGKERELVAAISSSGGSTYYADSVKGRYTISRDTAKNTVYLQMNSLQREDSAVYYCAARFPWRGGVKYSYYFQHDYWGQGTQVTVSS”, the “polyreactivity (PSR sort gate)” value is reported as “high polyreactivity”.
With “QVQLVESGGGLVQAGGSLRLSCAASGLSFLYAMGWYRHAPGKERELVAAISNGGSTYYADSVKGRFTISRDNAKNTDYLQMNSLKPEDTAVYYCAAAVTGSYASDYWGQGTQVTVSS” the “polyreactivity (PSR sort gate)” value was “high polyreactivity”.
With “QVQIVESGVGLVQAGGSLSLSCAASGIIIHSNAMGWYRQAPGKERELVAAITSSGGSKYYADSVKGRFTISRDNAKNTVYLQMNSLKPVDTAVYYCAVVTILVYRYVVPYDYWGHGTQVTVSS” the “polyreactivity (PSR sort gate)” value was “high polyreactivity”.
In the case of “QVQLVETGGGLVQAGGSLRLSCAASGSIFFDYAKGWSRQAPGKERELVAAIRWSGGRTSYADSVKGRFTISRDNAKNSVYLQMNSVKPEDTAVYYCSARWNRVRYGFDYWGQGTQVTVSS”, the “polyreactivity (PSR sort gate)” value is reported as “high polyreactivity”.
With “QVQLVESGGGLVQSGGSLRLSCAASGSNFITYAMGWYRQAPGKERELVAAIRDSGDRTYYADSVKGRFTISRDNAKNTVYLQMNSLKPEDTAVYYCNARWQEPLKYDYWGQGTQVTVSS” the “polyreactivity (PSR sort gate)” value was “low polyreactivity”.
With “QVQLVESGGGLVQARGSRRLSCAASGFIFRFNAMGWYRQAPGKERELVASITGSGGITYADSVKRRFTMSRDNAKNTVFLPMHSLKPDDTAVYYSAARGDGYQSGWVADWAPFYYWRQGTQVTVSS” the “polyreactivity (PSR sort gate)” value was “high polyreactivity”.
With “QVQLVESGRGLVQAGGSLRLSCAASGSILRNYAMGWYRQAPGKERELVAAISKSGGTTYYADSVKGRFTISRDNAKNTVYLQMNSLKPEDTAVYYCAARPGYLYDYWGQGTQVTVSS” the “polyreactivity (PSR sort gate)” value was “high polyreactivity”.
With “QVQLVESGGGLVQAGGSLRLSCAASGRTFTRYTMGWYRQAPGKERELVAGITRSGGSTYYADSVKGRFTISRDNAKNTVYLQMNSLKPEDTAVYYCAARLSGRYDSQDNYWGQGTQVTVSS” the “polyreactivity (PSR sort gate)” value was “high polyreactivity”.
For “QVQLVESGGGLVQAGGTLRLSCSASGIISTYYAMGWYRQAPGKERELVAAITSGGSTYYADSVKGRFTISRDNAKNTVYLQMNSLKPEDTAVYYCATRRIYKWYRYYYWGQCTQVTVSS”, the “polyreactivity (PSR sort gate)” value was “high polyreactivity”.
In the case of “QVQLVESGGGLVQAGGSLRLSCAASGFIFTDNAMGWYRQAPGKERELVAAISKNGGSTYYADSVKGRFTISRDNAKNTVYLQMNSLKQEDTAVYYCNTRRKNFVKSSQVEYWGQGTQVTVSS”, the “polyreactivity (PSR sort gate)” value is reported as “high polyreactivity”.
With “QVQLVESGGGLVQAGGSLRLSCAASGRTFWQYAMGWYRQAPGKERELVAAIRYSGGSTYYADSVKGRFTISRDNAKNTVYLQMNSLKPEDTAVYYCAKRLKPGFYYWGQGTQVTVSS” the “polyreactivity (PSR sort gate)” value was “high polyreactivity”.
In the case of “QVQLVVSGGGLVQAGGSLRLRCAASGRTFVRYAMGWSRQAPGKERELVARITTRGTSTYYADSVKGRFTISRDNAKNTVYLLLNSLKPEDTAVYYCNKVRTFRDKSRYDYWGQGTQVTVSS”, the “polyreactivity (PSR sort gate)” value is reported as “low polyreactivity”.
In the case of “QVQLVESGGGLVQAGGSLRISCAASGITFTSYAMGWYRQAPGKERELVAAISSSGVRTYYADSVKGRFTISRDNAKNTVYLQLNSLKPEDTAVYYCATRRRVLDGYDYGGQGTQVTVSS”, the “polyreactivity (PSR sort gate)” value is reported as “high polyreactivity”.
For “QVQLVESGGGLVQAGGSLRLSCAASGFTFYYYAMGWYRQAPGKERELVAAINWSGGTTYYADSVKGRFTISRDNAKNTVYLQMNSLKPEDTAVYYCAVSVFTVAPYRRYDYWGQGTQVTVSS”, the “polyreactivity (PSR sort gate)” value was “high polyreactivity”.
For “QVQLVESVGCLVQAGGSLRLSCDASGIIFNQNTMGWYRPAPGKERQLVAAITSSVGSTYYADSVKGRFTISRDNAKNTVYLQMNSLKPEVTAVYYCAATGWVYRRSRDYWGQGTQVTVSS”, the “polyreactivity (PSR sort gate)” value was “low polyreactivity”.
With “QDQLVESGGGLVQAGGSLRLSCASSGRIFRWYAMGWYRQATGKERELVAAISWSGDSTYYADSVKGRFSISRDNAKNNVYLEMNSLKPEDTAVYYCNYVLYKSDYWGQGTQVTVSS” the “polyreactivity (PSR sort gate)” value was “high polyreactivity”.
With “QVQLVESGGGLVQAGGSLRLSCAASGSIFYWYAMGWYRQAPGKERELVAAISSGGSTNYADSVKGRFTISRDNAKNTVYLQMNSLKPEDTSVYYCNADIRSFYCEYYTGLDSWGQGTQVTVSS” the “polyreactivity (PSR sort gate)” value was “low polyreactivity”.
In the case of “QVQLVESGGGLVQAGGSLRLSCAASVSTIGYYAMGWYRQAPGKEWELVAAITWSGDSTYADSVKGRFTISRDNAKNTVYLQMNRLKPEDTAVYYCARRGFLGHWPRPSYDYWGQGTQVTVSS”, the “polyreactivity (PSR sort gate)” value is reported as “low polyreactivity”.
For “QVQLVESGGGLVQAGGSLRLSCAGSGSIFSIYAMGWYRQAPGKERELVAAIRYDGGSTYYADSVKGRFTISRDNAKNTVYLQMNSLKPEDTAVYYCAAKVYFRRRGLHPYDYWGQGTQVNVSS”, the “polyreactivity (PSR sort gate)” value was “low polyreactivity”.
In the case of “QVQLVESGGGLVQAGGSLRLSCAASGSIFSANTMGWYRQAPGNEREFVAGITTSAGRTDYADSVKGRFTISRDNAKNTVYVQMNSLKPEDTAVYYCNADRRYYYHYRRYWYDYWGQGTQVTVSS”, the “polyreactivity (PSR sort gate)” value is reported as “high polyreactivity”.
With “QVQLVESGGGLVQAGGSLRLSCAASGRIFYYYAMGWYRQAPGKERELVAAINRSGGSTYYADSVKGRFTISRDNAKNTVYLQMNSLKPEDTAVYYCASYDYWGQGTQVTVSS” the “polyreactivity (PSR sort gate)” value was “high polyreactivity”.
For “QVQLVESGGGLVQEGGSLRLSCAASGFIFVTNAMGWYRQAPGKERELVAAITIGDSTYYADSVKGRFTISRDNAKNTVYLQMNSLKPEDTAVYYCAAEVGFGPGFSTIAYTFDYWGQGTQVTVSS”, the “polyreactivity (PSR sort gate)” value was “low polyreactivity”.
For “QVQLVESGGGLVQAGGSLRLSCAASGRTFRSNAMGWYRQAPGKERELVAAISKGGDRTYYADSVKGRFTISRDNAKNNVYLHMNSLKPEDTAVYYCAARYTPSRYYYWGQGTQVTVSS”, the “polyreactivity (PSR sort gate)” value was “high polyreactivity”.
For “QVQLVESGGGLVQAGGRLRLSCAASGLTFYLSAMGWYRQAPGKERELVAGISRSGGSTYYADAVKGRFTISRDYAKNTVYLLMNSLKPEDTAVSYCNKASAVFEFYYWGQGTQVTVSS”, the “polyreactivity (PSR sort gate)” value was “high polyreactivity”.
With “QVQLVESGGGLVQAGGSLRLSCAASGSTFDNYALGWYRQAPGKERELVAAINWSGSSTYYADSVKGRFTISRDNAKNTVYLQMNSLKPEDTAVYYCNKTGVTPKTATDGDYWGQGTQVTVSS” the “polyreactivity (PSR sort gate)” value was “low polyreactivity”.
With “QVQLVDSGGGLVQAGGSLRLNFAASGLTFDRYGMGWYRQGPGKERELVAAIDGSGTSTYYADSVKGRFTISRDNAKNTVYLQMNSLKPEDTAVYYCAAGALSWYDYWGQGTQVTVSS” the “polyreactivity (PSR sort gate)” value was “low polyreactivity”.
With “QVQLVESGGGLVQAGGSLRLSCAASGLTFPYYAMGWYRQAPGKERELVAVITSGGRTYYADSVKGRFTISRDNAKNTVYLQMNSLKPEDTAVYYCAVGWRTIYGSDGDYWGQGTQVTVST” the “polyreactivity (PSR sort gate)” value was “high polyreactivity”.
In the case of “QVQLVESGGGLVQAGGSLRLSCAASGYTFHGYSMGWYRKAPGKERELVAVITQRGGSTSYADSVKGRFTISRDNAKNTVYLQMNSLKPEDTAVYYCNASAWLVVARTRYGYWGQGTQVTVSS”, the “polyreactivity (PSR sort gate)” value is reported as “low polyreactivity”.
With “QVQLVESGGGLVQAGGSLRLSCAASGLTLYGYTMGWYRQAPGKERELVATITTGGDSTYYADSVKGRFTISRDNAKNTVYLQMNSLKPEDTAVYYCAAYSYGWDYSYDYWGQGTQVTVSS” the “polyreactivity (PSR sort gate)” value was “low polyreactivity”.
With “QVQLVESGGGLVQAGGSLRLTCAASGITFTIYAMGWYRLATGKERELVAAISWSGTSTYYADSVKGRFTISRDNAKNTVYLKMNSLKQEDTAVYYCAADYTTSQGDSELDYWGQGTQVTVSS” the “polyreactivity (PSR sort gate)” value was “low polyreactivity”.
In the case of “QVQLVESGGGLVHAGGSLRLSCAASVSTFLFYAMGWYRQAPGKEREFVAAITWSGGSTYYADSVKGRFTISRDNAKNTVYLQMNSLKPEDTAVYYCNGYYVPTTGREFYFAFYYWGQGTQVTVSS”, the “polyreactivity (PSR sort gate)” value is reported as “low polyreactivity”.
For “QVQLVESGGGLFQAGGRLRLSCAASGRNCNAYTMGWYRQAPGKERELVAAISRRGGSTYYADSVKGRFTISRDNAQNTVSLQMNSLNPEDTAVYYCATKSQYDYDYWGQGTQVTVSS”, the “polyreactivity (PSR sort gate)” value was “high polyreactivity”.
With “QVQLVESGGGLVQAGGSLRLSCAASGGTFTRYAMGWYRQAPGKEREFVAAITFSGGSTYYADSVKGRFTISRDNAKNTVYLQMNSLKPEDTAVYYCAVRERSTYRYYYWGQGTQVTVSS” the “polyreactivity (PSR sort gate)” value was “high polyreactivity”.
With “QVQLVESGGGLVQAGGSLRLSCAASGRILTPYTMGWYRQAPGKERELVAAISKRGTSTHYADSVKGRFTISRDNAKNTVYLLMNSLKPEDTAVYYCNAVYRSSQYDYWGQGTQVTVSS” the “polyreactivity (PSR sort gate)” value was “high polyreactivity”.
In the case of “QVQLVESGGGLVQAGVSLRLSCAASGGIFADYAMGWYRQAPGKERELVAAISSGGNTNYADSVKGRFTISRDNAKNTVYLQMNSLKPEDTAVYYCNRDTSYYRYVYYEGNDYWGQGTQVTVSS”, the “polyreactivity (PSR sort gate)” value is reported as “low polyreactivity”.
In the case of “QVQLVESGGGLVQAGGSLRLSCAASGRTFSYYAMGWYRQAPGKERELVAAITSRGSSTYYADSVKGRFTISRDNAKNTVYLQMNSLKPEDTAVYYCAKVRPYLDTNEYYYWGQGTQVTVSS”, the “polyreactivity (PSR sort gate)” value is reported as “high polyreactivity”.
In the case of “QVQLVESGGGLVQAGGSLRLSCAASGFIFSRNAMGWYRQAPGKVRELGAAISRVGSTYYADSVKGRFTISRDNAKNTVYLQMYSLKREDTAVYYCARAWGNGGKSIFDYWGQGTQVTVSS”, the “polyreactivity (PSR sort gate)” value is reported as “high polyreactivity”.
For “QVQLVESGARIVQAGGSLRLSCAAYGSTFGRYGMGWYRQAPGKERELVAAISRAGGTNYADSVKGRITISRDNAKNTVYLQMNSLKPEDTAVYYCNARWYYVLYDYWGQGTQVTVSS”, the “polyreactivity (PSR sort gate)” value was “low polyreactivity”.
For “QVQLVESGGGLVQAGGCLRLSCAASGSIFDYYTMGWYREAPGNEREFVAGISDSGGSTTYADSVKGRFTISRDNAKNTVYLQMNSLKPEDTAVYYCNAEYVGWFYKYDYWGQGTQVTVSS”, the “polyreactivity (PSR sort gate)” value was “high polyreactivity”.
In the case of “QVQLVESGGGLVQAGGSLRLSCAASGFTFFSYAMGWYRQAPGKERELVAAISWSGGTTYYADSVKGRFTISRDNAKNTDYLQMNSLKPEDTAVYYCAAGPFSYSHYGRKFYYWGQGTQVTVSS”, the “polyreactivity (PSR sort gate)” value is reported as “high polyreactivity”.
For “QVKLVESGGGLVQAGCSLRLSCAASGFIFRSYAMGWYRQAPRKERELVAVISRRGVNTHYADSVKGRFTISRDNAKNTVYLQMNSLKPEDTAVYYCAKGLSALGDYWGQGTQVTVSS”, the “polyreactivity (PSR sort gate)” value was “high polyreactivity”.
